B1: 219R45: monoclonal antibody that specifically binds human VEGF; parental anti-VEGF antibody (antibody)
heavy: QVQLVQSGAEVKKPGASVKVSCKASGYTFTNYWMHWVRQAPGQGLEWMGDINPSNGRTSYKEKFKRRVTLSVDKSSSTAYMELSSLRSEDTAVYFCTIHYDDKYYPLMDYWGQGTLVTVSSASTKGPSVFPLAPCSRSTSESTAALGCLVKDYFPEPVTVSWNSGALTSGVHTFPAVLQSSGLYSLSSVVTVPSSNFGTQTYTCNVDHKPSNTKVDKTVERKCCVECPPCPAPPVAGPSVFLFPPKPKDTLMISRTPEVTCVVVDVSHEDPEVQFNWYVDGVEVHNAKTKPREEQFNSTFRVVSVLTVVHQDWLNGKEYKCKVSNKGLPAPIEKTISKTKGQPREPQVYTLPPSREEMTKNQVSLTCLVKGFYPSDIAVEWESNGQPENNYKTTPPMLDSDGSFFLYSKLTVDKSRWQQGNVFSCSVMHEALHNHYTQKSLSLSPGK
light: DIVMTQSPDSLAVSLGERATISCRASESVDNYGISFMKWFQQKPGQPPKLLIYAASNQGSGVPDRFSGSGSGTDFTLTISSLQAEDVAVYYCQQSKEVPWTFGGGTKVEIKRTVAAPSVIFPPSDEQLKSGTASVVCLLNNFYPREAKVQWKVDNALQSGNSQESVTEQDSKDSTYSLSSTLTLSKADYEKHKVYACEVTHQGLSSPVTKSFNRGEC
B2: 21R79: monoclonal antibody that specifically binds human DLL4; parental anti-DLL4 antibody (antibody)
heavy: QVQLVQSGAEVKKPGASVKISCKASGYSFTAYYIHWVKQAPGQGLEWIGYIANYNRATNYNQKFKGRVTFTTDTSTSTAYMELRSLRSDDTAVYYCARDYDYDVGMDYWGQGTLVTVSSASTKGPSVFPLAPCSRSTSESTAALGCLVKDYFPEPVTVSWNSGALTSGVHTFPAVLQSSGLYSLSSVVTVPSSNFGTQTYTCNVDHKPSNTKVDKTVERKCCVECPPCPAPPVAGPSVFLFPPKPKDTLMISRTPEVTCVVVDVSHEDPEVQFNWYVDGVEVHNAKTKPREEQFNSTFRVVSVLTVVHQDWLNGKEYKCKVSNKGLPAPIEKTISKTKGQPREPQVYTLPPSREEMTKNQVSLTCLVKGFYPSDIAVEWESNGQPENNYKTTPPMLDSDGSFFLYSKLTVDKSRWQQGNVFSCSVMHEALHNHYTQKSLSLSPGK
light: B1 light

Tests used:
human DLL4-Fc = human DLL4-Fc (Homo sapiens, UniProt Q9NR61); assay: Biacore binding affinity (KD) to human DLL4; conditions: Biacore 2000, human DLL4-Fc on CM5 chip; read-out: KD hDLL4
Method: (§1) The KDs of parental antibodies anti-VEGF 219R45 (IgG format), anti-DLL4 21R79 (IgG format), anti-DLL4 21M18 (IgG format) and bispecific antibodies 219R45-MB-21M18 and 219R45-MB-21R79 were determined using a Biacore 2000 system from Biacore LifeSciences (GE Healthcare). Recombinant human DLL4-Fc or mouse DLL4-Fc proteins were immobilized on CM5 carboxyl chips using standard amine-based chemistry (NHS/EDC) and blocked with ethanolamine. Recombinant human VEGF165 or mouse VEGF165 were biotinylated and immobilized on streptavidin chips. The antibodies were serially diluted 2-fold from 100 nM to 0.78 nM in HBS-P (0.01M HEPES pH7.4, 0.15M NaCl, 0.005% v/v Polysorbate 20). For each antibody, all 8 dilutions were sequentially injected over a specific chip. Kinetic data were collected over time and were fit using the simultaneous global fit equation to yield affinity constants (KD values) for each bispecific antibody.
Several additional anti-DLL4 antibodies were identified that had binding affinities intermediate to the KDs of 21M18 and 21R79. Two of these anti-DLL4 antibodies were used to produce anti-VEGF/anti-DLL4 bispecific antibodies 219R45-MB-21R75 and 219R45-MB-21R83. Using the Biacore 2000 system as described above, the KDs of the bispecific antibodies 219R45-MB-21R75 and 219R45-MB-21R83 to human DLL4 were determined.

mouse DLL4-Fc = assay: Biacore binding affinity (KD) to mouse DLL4; conditions: Biacore 2000, mouse DLL4-Fc on CM5 chip; read-out: KD mDLL4
Method: as §1

[1] = tested on: VEGF-induced proliferation of HUVEC cells; assay: HUVEC proliferation assay; format: cell-based, human; conditions: hVEGF 5 ng/ml, Alamar Blue on day 7
Method: FIG. 3. Inhibition of VEGF-induced HUVEC proliferation by anti-VEGF/anti-DLL4 bispecific antibodies. Fluorescence intensity is read using an excitation wavelength of 530 nm and an emission wavelength of 590. 219R45-MB-21M18 (-●-); 219R45-MB-21R79 (-▴-); 219R45 (-▪-); Medium with no VEGF (-⋄-).
HUVEC cells were obtained from Lonza (Walkersville, Md.) and cultured in growth media (M199, 10% heat-inactivated FBS (HI-FBS), 50 μg/ml EGS, 1X heparin, 1 mM L-glutamine). For the HUVEC proliferation assay, a 96-well plate was pre-coated with 50 μl of 10 μg/ml rat tail collagen type I solution (collagen I in 0.02N acetic acid) and incubated at 4° C. overnight. After incubation, the plate was thoroughly aspirated to remove unbound collagen I solution and washed once with 200 μl DPBS. The HUVEC cells were removed from the surface of the growth flasks using an endothelial cell subclone reagent and centrifuged at 1200 rpm for 5 minutes at 4° C. The cells were resuspended in starvation/assay medium (M199 and 2% HI-FBS, 1× heparin, 5 U/ml heparin-glutamine) at a density of 10^5 cells/ml. The cells were seeded into the collagen-coated assay plate at 5000 cells/well, 50 ul/well. The cells were incubated for 3 hours at 37° C., washed one time, refed with 100 ul assay media, and incubated overnight at 37° C. The next day, bispecific antibodies 219R45-MB-21M18, 219R45-MB-21R79, parental antibody 219R45, or control antibody LZ1 were prepared in a mixture with human VEGF (R&D Biosystems, Minneapolis, Minn.). The antibodies were serially diluted 5-fold from […] to 0.25 nM in assay buffer in combination with hVEGF (final concentration 5 ng/ml). The mixture was pre-incubated at 37° C. for 2 hours. The medium was removed from the assay plate, and 100 μl of the antibody/hVEGF mixture was added to each well. […] The plate was read with a SpectraMax M5e Microplate reader (Molecular Devices, Sunnyvale CA) using a excitation wavelength of […] and an emission wavelength of 590 nm.

mouse VEGF165 = biological target: T1, mouse VEGF165 (Mus musculus, UniProt Q00731); assay: Biacore binding affinity (KD) to mouse VEGF; conditions: Biacore 2000, biotinylated mouse VEGF165 on streptavidin chip; read-out: KD mVEGF
T1 sequence (Q00731 27-190 isoform Q00731-2): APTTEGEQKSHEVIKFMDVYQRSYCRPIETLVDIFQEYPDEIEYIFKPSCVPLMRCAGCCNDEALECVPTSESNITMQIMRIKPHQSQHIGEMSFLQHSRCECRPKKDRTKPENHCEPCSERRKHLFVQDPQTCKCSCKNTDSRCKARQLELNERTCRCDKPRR
Method: as §1

[2] = tested on: DLL4-induced Notch signaling; assay: DLL4-induced Notch signaling luciferase reporter assay in Notch2-expressing PC3 cells; format: cell-based; conditions: coated human DLL4 100 ng/well, antibody 20 to 0.064 ug/ml
Method: FIG. 4. Inhibition of DLL4-induced Notch signaling by anti-VEGF/anti-DLL4 bispecific antibodies. Luciferase activity was measured using a dual luciferase assay kit with firefly luciferase activity normalized to Renilla luciferase activity. 219R45-MB-21M18 (-●-); 219R45-MB-21R79 (-▪-); 21M18 (-∘-); 21R79 (-□-).
Human PC3 cells were transfected with an expression vector encoding a full-length human Notch2 receptor and a firefly luciferase reporter vector (8× CBF-luciferase reporter) that is responsive to Notch signaling. The cells were also transfected with a Renilla luciferase reporter (Promega, Madison, Wis.) as an internal control for transfection efficiency. Purified human DLL4 protein was coated onto 96-well plates at 100 ng/well and Notch2-expressing PC3-luc cells were added to the wells. Anti-VEGF/anti-DLL4 bispecific antibodies 219R45-MB-21M18, 219R45-MB-21R79, parental anti-DLL4 antibodies 21M18, 21R79 or a control antibody LZ1 were serially diluted 5-fold from 20 ug/ml to 0.064 ug/ml, added to the appropriate wells, and incubated overnight. Luciferase activity was determined using a dual luciferase assay kit (Promega, Madison, Wis.) with firefly luciferase activity normalized to Renilla luciferase activity.

human VEGF165 = biological target: T2, human VEGF165 (Homo sapiens, UniProt P15692); assay: Biacore binding affinity (KD) to human VEGF; conditions: Biacore 2000, biotinylated human VEGF165 on streptavidin chip; read-out: KD hVEGF
T2 sequence (P15692 27-191 isoform P15692-4): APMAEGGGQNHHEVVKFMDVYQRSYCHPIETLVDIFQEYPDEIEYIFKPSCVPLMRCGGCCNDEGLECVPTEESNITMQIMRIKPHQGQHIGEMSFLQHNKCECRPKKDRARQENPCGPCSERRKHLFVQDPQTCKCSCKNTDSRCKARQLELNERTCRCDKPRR
Method: as §1

Chain of mouse DLL4-Fc (Q9JI71 27-519 limits assumed): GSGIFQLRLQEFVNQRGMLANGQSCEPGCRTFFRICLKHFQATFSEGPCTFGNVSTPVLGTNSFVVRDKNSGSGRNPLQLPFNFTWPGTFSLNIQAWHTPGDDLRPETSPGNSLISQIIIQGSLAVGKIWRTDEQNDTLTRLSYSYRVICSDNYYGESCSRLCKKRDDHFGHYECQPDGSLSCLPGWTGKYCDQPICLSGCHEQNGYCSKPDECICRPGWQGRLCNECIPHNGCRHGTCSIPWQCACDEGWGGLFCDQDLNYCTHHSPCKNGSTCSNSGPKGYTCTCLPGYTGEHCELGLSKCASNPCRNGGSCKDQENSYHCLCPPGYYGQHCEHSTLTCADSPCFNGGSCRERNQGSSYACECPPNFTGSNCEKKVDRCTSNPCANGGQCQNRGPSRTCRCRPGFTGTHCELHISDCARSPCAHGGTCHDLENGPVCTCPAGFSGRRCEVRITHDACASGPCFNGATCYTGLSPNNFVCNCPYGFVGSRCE
Chain of human DLL4-Fc (Q9NR61 27-522 limits assumed): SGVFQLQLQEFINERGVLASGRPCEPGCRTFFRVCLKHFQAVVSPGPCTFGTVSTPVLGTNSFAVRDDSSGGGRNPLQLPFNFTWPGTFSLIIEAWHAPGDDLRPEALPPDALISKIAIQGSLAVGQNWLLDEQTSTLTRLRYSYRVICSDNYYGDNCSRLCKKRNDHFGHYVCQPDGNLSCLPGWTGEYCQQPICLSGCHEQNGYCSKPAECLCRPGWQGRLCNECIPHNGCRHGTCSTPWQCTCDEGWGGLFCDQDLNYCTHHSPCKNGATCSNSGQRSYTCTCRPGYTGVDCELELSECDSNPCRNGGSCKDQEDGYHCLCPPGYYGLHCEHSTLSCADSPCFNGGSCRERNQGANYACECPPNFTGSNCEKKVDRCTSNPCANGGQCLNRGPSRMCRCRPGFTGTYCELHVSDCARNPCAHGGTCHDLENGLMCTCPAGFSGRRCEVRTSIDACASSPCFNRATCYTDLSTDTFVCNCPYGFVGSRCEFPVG

Molecule	Kd (human DLL4-Fc)	Kd (mouse DLL4-Fc)	inhibition of VEGF-induced HUVEC proliferation [1]	Kd (mouse VEGF165)	inhibition of DLL4-induced Notch signaling [2]	Kd (human VEGF165)
B1	> 100 nM	> 100 nM	inhibited HUVEC proliferation	~23 nM	–	–
B2	–	> 100 nM	–	> 100 nM	inhibited DLL4-induced Notch signaling	> 100 nM

Reference: US11512128B2, “VEGF/DLL4 binding agents and uses thereof” (MEREO BIOPHARMA 5, INC., priority 2011, dated 2022)
